B1: TPR t1 (parent)
chain: GACCAAUCUGCCCUCAGAGCUCGAGAACAUCUUCGGAUGCAGAGGAGGCAGGCUUCGGUGGCGCGAUAGCGCCAACGUCCUCAACCUCCAAUGCAUCCCACCACAUGAUGAUGCCUGAAGAGCCUUGGUUUUUUG

Variants of B1 are the subject of the series. The series is described as follows: polymerase ribozyme fitness, log enrichment relative to wild type (log ratio); higher = more active; in vitro selection for triplet polymerase activity. Summed up:
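Both subunits of a heterodimeric triplet polymerase ribozyme were given their own mutant library, built by PCR and transcribed. Each library was annealed with a biotinylated primer, the partner subunit and triplets, incubated frozen at −7 °C, and its extended constructs gel-excised, captured on streptavidin beads and amplified by RT-PCR, all in one round done in triplicate. Fitness is the logarithm of genotype enrichment relative to wild-type enrichment, with replicates averaged by inverse-variance weighting. That logarithm is base 2, and Illumina-sequenced genotypes needed ≥10 input reads and ≥1 read per output.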
For GACCAAUCUGCCCUCAGAGCUCGAGAACAUCUUCGGAUGCAGAGGAGGCAGGCUUCGGUGGCUCGAUAGCGCCAACGUCCUCAACCUCCAAUGCAUCCCACCAAAUGAUGAUGCCUGAAGAGCCUUGGUUUUAUG, the “polymerase ribozyme fitness (log ratio)” value was -3.31.
Take GACCAAUCUGCCCUCAGAGCUCGAGAACAUCUUCGGAUGCAGAGGAGGCAGGCUUCGGUGGCCCGAUAGCGCCAACGUCCUCAACCUCCAAUGCAUCCCACCACAUGAUGAUGCCUGAAGAGCCUAGUUUUUAUG: the “polymerase ribozyme fitness (log ratio)” value is -3.25.
For the variant GACCAAUCUGCCCUCAGAGCUCGAGAACAUCUUCGGAUGCAGAGGAGGCAGGCUUCGGUGGCCCGAUAGCGCCAACGUCCUCAACCUCCAAUGCAUCCCACCACAUGAUGAUGCCAGAAGAGCCUUGGUUUUUUG, the “polymerase ribozyme fitness (log ratio)” value was -3.47.
Take GACCAAUCUGCCCUCAGAGCUCGAGAACAUCUUCGGAUGCAGAGGAGGCAGGCUUCGGUGGCCCGAUAGCGCCAACGUCCUCAACCUCCAAUGCAUCCCACCACAUGAUGAUGCCUGAAGAGCCGUGGUUUUUUG: the “polymerase ribozyme fitness (log ratio)” value was -2.2.
As for GACCAAUCUGCCCUCAGAGCUCGAGAACAUCUUCGGAUGCAGAGGAGGCAGGCUUCGGUGGCUCGAUAGCGCCAACGUCCUCAACCUCCAAUGAAUCCCACCACAUGAUGAUGCCUGAAGCGCCUUGGUUUUUUG, the “polymerase ribozyme fitness (log ratio)” value is -0.515.
For the variant GACCAAUCUGCCCUCAGAGCUCGAGAACAUCUUCGGAUGCAGAGGAGGCAGGCUUCGGUGGCUCGAUAGCGCCAACGUCCUCAACCUCCUAUGCAUCCCACCACAUGAUGAUCCCUGAAGAGCCUUGGUUUUUUG, the “polymerase ribozyme fitness (log ratio)” value was -3.41.
For the variant GACCAAUCUGCCCUCAGAGCUCGAGAACAUCUUCGGAUGCAGAGGAGGCAGGCUUCGGUGGCUCGAUAGCGCCAACGUCCUCAACCUCAAAUGCAUCCCACCACAUGAUGAUGCCUGAAGAGCCUUGGUUUUUUG, the “polymerase ribozyme fitness (log ratio)” value was -2.53.
Consider GACCAAUCUGCCCUCAGAGCUCGAGAACAUCUUCGGAUGCAGAGGAGGCAGGCUUCGGUGGCUCGAUAGCGCCAACGUCCUCAACCUCCACGGCAUCCCACCACAUGAUGAUGCCUGAAGAGCCUUGGUUUUUUG, for which the “polymerase ribozyme fitness (log ratio)” value is -4.45.
With GACCAAUCUGCCCUCAGAGCUCGAGAACAUCUUCGGAUGCAGAGGAGGCAGGCUUCGGUGGCUCGAUAGAGCCAACGUCCUCAACCUCCAAUGCAUCCCACCACAUGAUGAUGCCUGAAGAGCCUUGGUUUUUUG, the “polymerase ribozyme fitness (log ratio)” value is -0.179.
For GACCAAUCUGCCCUCAGAGCUCGAGAACAUCUUCGGAUGCAGAGGAGGCAGGCUUCGGUGGCUCGAUAGUGCCAACGUCCUCAACCUCCAAUGCAUCCCACCACAUGAUGAUGCCUGAAGAGCCUUGGUUUUUUG, the “polymerase ribozyme fitness (log ratio)” value was -0.91.
The value for GACCAAUCUGCCCUCAGAGCUCGAGAACAUCUUCGGAUGCAGAGGAGGCAGGCUUCGGUGGCUCGAUAGCGCCAACGUCCUCAACCUCCAAUGCAUCCCAACACAUGAUGAUGCCUGAAGAGCCUUGGUUUUUUG was -2.28; that for GACCAAUCUGCCCUCAGAGCUCGAGAACAUCUUCGGAUGCAGAGGAGGCAGGCUUCGGUGGCUCGAUAGCGCCAACGUCCUCAACCUCCAAUGCAUCCCACCACAUGAUGAUGCCUGAACAGCCUUGGUUAUUUG was 0.507.
For GACCAAUCUGCCCUCAGAGCUCGAGAACAUCUUCGGAUGCAGAGGAGGCAGGCUUCGGUGGCUCGAUAGCGCCAACGUCCUCAACCUCCAAUUCAUCCCACCACAUGAUGAUGCCUGAAGAGCGUUGGUUUUUUG the value was -0.616.
Consider GACCAAUCUGCCCUCAGAGCUCGAGAACAUCUUCGGAUGCAGAGGAGGCAGGCUUCGGUGGCUCGAUAGCGCCAACGUCCUCAACCUCCAAUGCAUCCCACCACAUGAUGAUGCCUGAAGAGCCUUGGUUUUUUG, for which the “polymerase ribozyme fitness (log ratio)” value is -1.18.
For the variant GACCAAUCUGCCCUCAGAGCUCGAGAACAUCUUCGGAUGCAGAGGAGGCAGGCUUCGGUGGCCCGAUAGCGCCAACGUCCUCAACCUCCAAUGCAUCCCACCACAUGAUGAUACCUGAAGAGCCUUGGUUUUUUG, the “polymerase ribozyme fitness (log ratio)” value was -2.11.
For the variant GACCAAUCUGCCCUCAGAGCUCGAGAACAUCUUCGGAUGCAGAGGAGGCAGGCUUCGGUGGCUCGAUAGCGCCAACGUCCUCAAACUUCAAUGCAUCCCAGCACAUGAUGAUGCAUGAAGAGCAUUGGCUUUUUG, the “polymerase ribozyme fitness (log ratio)” value was -2.52.
GACCAAUCUGCCCUCAGAGCUCGAGAACAUCUUCGGAUGCAGAGGAGGCAGGCUUCGGUGGCCCGAUAGCGCCAACGUCCUCAACCUCCAAUGCAUCCCACCACAUGAUGAUGCCUGAAGAGCUUUGGUUUUUUG: the “polymerase ribozyme fitness (log ratio)” value amounted to 0.611.
As for GACCAAUCUGCCCUCAGAGCUCGAGAACAUCUUCGGAUGCAGAGGAGGCAGGCUUCGGUGGCCCGAUAGCGCCAACGUCCUCAACCUCCAAUGCAUCCCACCACAUAAUGAUGCCUGAAGAGCCUUGGUUUUUUG, the “polymerase ribozyme fitness (log ratio)” value was -4.87.
As for GACCAAUCUGCCCUCAGAGCUCGAGAACAUCUUCGGAUGCAGAGGAGGCAGGCUUCGGUGGCUCGAUAGCGCCAACGUCCUCAAUCUCCAAUGCAUCCCACCACAUGAUGAUGCCUGAAGAGCCUUGGUUUUUUG, the “polymerase ribozyme fitness (log ratio)” value is -2.96.
Take GACCAAUCUGCCCUCAGAGCUCGAGAACAUCUUCGGAUGCAGAGGAGGCAGGCUUCGGUGGCCCGAUAGCGCCAACGACCUCAACCUCCAAUGCAUCCCACCACAUGAUGAUGCCUGAAGAGCCUUGGUUUUUUG: the “polymerase ribozyme fitness (log ratio)” value is -0.719.
GACCAAUCUGCCCUCAGAGCUCGAGAACAUCUUCGGAUGCAGAGGAGGCAGGCUUCGGUGGCUCGAUAGCGCCAACGUCCUCAACCUCCAAUGCAUUCCACCACAUGAUGACGCCUGAAGCGCCUUGGUUUUUUG: the “polymerase ribozyme fitness (log ratio)” value came out at 0.0312.

Values taken from the RNAGym collection of RNA variant scans (doi:10.1073/pnas.2313332121).
